Test results reported in article PMC4936896.
Blank lines part the entries; values can stand above or below the substance they belong to.

What was measured:
[1] = target: hyperstable HIV-1 cores (affinity-purified), as used for TRIM5α binding and imaging (HIV-1 (NL4-3)); assay: co-sedimentation; conditions: scale: CA per TRIM5α_(AGMpyg)
[2] = target: hyperstable HIV-1 CA_(A14C,E45C) cores (HIV-1 (NL4-3)); assay: cross-linking
[3] = target: truncated TRIM5α_(AGMpyg) that lacked the SPRY domain (African green monkey (Chlorocebus pygerythrus)); assay: SEC; final gel filtration step, HiLoad 16/600 Superdex 200 in 20 mM CHES, 100 nM ZnCl2, 1 mM TCEP, pH 10.0, 4°C; oligomer judged from retention time

Substance: African green monkey TRIM5α (Chlorocebus pygerythrus) (from UniProt Q5C8U4 1-515) (natural protein)
- stoichiometry N [1]: 7

Substance: hyperstable HIV-1 CA_(A14C,E45C) cores (complex)
- stoichiometry N [2]: 6

- stoichiometry N [3]: 2
Substance: truncated TRIM5α_(AGMpyg) that lacked the SPRY domain (domain or fragment)
